# Molecular target: bRSV ATue51908 postF (bovine respiratory syncytial virus, strain ATue51908), P22167
# Experiment: biolayer interferometry (Octet), variant on Ni-NTA tip, Fab in solution
# Details: remark: other sources report otherwise
binder,measurement,value
"MPE8 Fab (Fab, V domains shown) VH: EVQLVESGGGLVKPGGSLRLSCAASGFTFSSYSMNWVRQAPGKGLEWVSSISASSSYSDYADSAKGRFTISRDNAKTSLFLQMNSLRAEDTAIYFCARARATGYSSITPYFDIWGQGTLVTVSS VL: QSVVTQTPSVSGAPGQRVTISCTGSSSNIGAGYDVHWYQQLPGTAPKLLIYDNNNRPSGVPDRFSASKSGTSASLAITGLQAEDEADYYCQSYDRNLSGVFGTGTKVTVL",Kd,> 1000 nM
